Assay [1] addresses T1, human DR3 (TNFRSF25) expressed on cells (human, UniProt Q93038 25-417).
T1 sequence: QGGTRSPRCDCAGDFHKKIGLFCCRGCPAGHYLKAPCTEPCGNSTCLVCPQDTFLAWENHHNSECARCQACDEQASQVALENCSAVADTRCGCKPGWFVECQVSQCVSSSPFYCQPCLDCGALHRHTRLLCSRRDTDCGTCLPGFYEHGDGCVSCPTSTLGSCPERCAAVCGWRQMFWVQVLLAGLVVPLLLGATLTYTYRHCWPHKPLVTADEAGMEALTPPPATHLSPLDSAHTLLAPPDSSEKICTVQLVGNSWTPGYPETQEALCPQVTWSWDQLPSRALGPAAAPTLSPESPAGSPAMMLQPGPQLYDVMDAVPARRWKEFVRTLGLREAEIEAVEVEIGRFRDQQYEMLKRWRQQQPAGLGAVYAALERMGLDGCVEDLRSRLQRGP
In words: cell-based or functional assay.

The target of assay [2] is T2, DR3-8i (human).
T2 construct: also called purified monomeric DR3-8i antigen protein
T2 chain: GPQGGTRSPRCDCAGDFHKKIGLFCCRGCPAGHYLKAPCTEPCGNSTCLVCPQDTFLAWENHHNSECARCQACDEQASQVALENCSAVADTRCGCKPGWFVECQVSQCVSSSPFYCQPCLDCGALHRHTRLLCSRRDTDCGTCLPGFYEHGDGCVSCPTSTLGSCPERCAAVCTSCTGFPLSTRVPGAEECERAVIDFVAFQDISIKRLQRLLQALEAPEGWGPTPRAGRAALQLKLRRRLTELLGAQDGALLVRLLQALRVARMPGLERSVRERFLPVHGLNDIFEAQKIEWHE
In words: BLI, IgG captured on protein A, DR3-8i in solution; Average. Background: BLI is a label-free optical method that tracks binding on a fibre tip over time.

Assay [3] concerns the target T2, DR3-8i. In words: BLI, IgG captured on protein A, DR3-8i in solution; Experiment 1.
Assay [4] has as its target T2, DR3-8i. In words: BLI, IgG captured on protein A, DR3-8i in solution; Experiment 2.
The target in assay [5] is T3, recombinant human DR3/TNFRSF25 Fc chimera (human, UniProt Q93038 25-199).
T3 construct: extracellular domain; bought (R&D Systems); also called DR3-Fc; hDR3Fc chimera; not shown: human IgG1 Fc
T3 sequence (looked up): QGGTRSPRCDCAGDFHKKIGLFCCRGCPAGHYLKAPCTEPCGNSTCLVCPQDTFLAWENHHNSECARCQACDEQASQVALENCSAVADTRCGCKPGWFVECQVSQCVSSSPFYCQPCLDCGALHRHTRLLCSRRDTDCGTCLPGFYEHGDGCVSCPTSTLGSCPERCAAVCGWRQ
In words: HTRF epitope competition on DR3-Fc; competitor DyLight 650 labelled B9 IgG; mean ± SD of three experiments.

Assay [6] addresses T3, recombinant human DR3/TNFRSF25 Fc …. In words: SPR (Biacore), His-tagged hDR3-Fc captured by anti-His mAb, bivalent fit; apparent KD. In general terms: SPR reads the build-up and loss of mass on a sensor chip optically.

For orientation: IC50 means the point on the concentration scale where inhibition reaches its midpoint.

B1: B9-hIgG1 (antibody, V domains shown)
VH: EVQLVESGGGLVKPGGSLKLSCSASGFTFSSYAMSWVRQTPEKRLEWVATISDGDSYSYFPDSVKDRFIISRDNAKNNLFLQMSHLRSEDTAMYYCTRDRIYGSVQYYAMDYWGQGTSVTVSS
VL: DIVLTQSPASLAVSLGQRATISCRASESVEFSGTSLMQWYQQRPGLPPKLLIYAASNVESGVPARFSGSGSGTDFSLNIHPVEEDDIAMYFCQQSRKLPYTFGGGTKLEIN
notes: chimeric: mouse B9 variable regions, human IgG1; also called B9-H1; Non-humanised B9
Turning to B1, the “EC50 (pM), DR3 Jurkat reporter” value in assay [1] was found to be 457 pM. Further, the Kd turned out to be 0.259 nM with DR3-8i [2], 0.327 nM with DR3-8i [3] and 0.19 nM with DR3-8i [4]. Also, the IC50 in assay [5] is 0.252 nM.

B2: B9 mIgG2A (antibody, V domains shown)
VH: EVQLVESGGGLVKPGGSLKLSCSASGFTFSSYAMSWVRQTPEKRLEWVATISDGDSYSYFPDSVKDRFIISRDNAKNNLFLQMSHLRSEDTAMYYCTRDRIYGSVQYYAMDYWGQGTSVTVSS
VL: DIVLTQSPASLAVSLGQRATISCRASESVEFSGTSLMQWYQQRPGLPPKLLIYAASNVESGVPARFSGSGSGTDFSLNIHPVEEDDIAMYFCQQSRKLPYTFGGGTKLEIN
notes: parental mouse IgG2a, kappa; also called B9-M2A; murine anti-hDR3 mAb clone B9
Regarding B2, in assay [6], the Kd was 0.561 nM.

B3: F10 mIgG1 (antibody, V domains shown)
VH: EVQLVESGGDLVKPGGSLKLSCAASGFSFSAYAMSWVRQTPEKILEWVATISDGDPYTYYPDNVKGRFTISRDNARNNLYLQMSHLRSEDTAIYYCTRERNDYDQYYTMDYWGQGTSVTVSS
VL: DIVLTQSPASLVVSLGQRATISCRASKSVSTSGYNYLHWYQQTPGQPPKLLIYLASNLESGVPARFSGSGSGTDFTLNIHPVEEEDVATYYCQHSRELPWTFGRGTKLEIKR
notes: parental mouse IgG1; also called F10-M1; murine anti-hDR3 mAb clone F10
For the molecule B3, in assay [6], the Kd came to 1.07 nM.

The record behind these values is patent WO2025083273A1 (dated 2025).
